The text below walks through data of the nanobody polyreactivity screen of Harvey et al. (2022).

This data set in a line: yeast display, Sf9 membrane polyspecificity reagent, FACS + sequencing; frameworks hold sequencing errors. In outline:
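A synthetic nanobody library was expressed on Saccharomyces cerevisiae BJ5465 by galactose induction for 36–48 hours. The library was stained for 1 hour at 4 °C with 10% biotinylated, detergent-solubilized Sf9 membrane reagent and enriched with streptavidin microbeads before FACS. Low and high (top ~1%) gates were set on anti-HA fluorescence for expression and streptavidin fluorescence for reagent binding, and each polyreactivity label reflects the gate of origin.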
For “QVQLVESGGVLVQAGGSLRLSCAASGSIFGTYAMGWYRRAPGKERELVAAITSDGVDTYYADSVKGRFTISRDNAKITVYLQMNSLKPEDTAVYYGAAEYEGLYGYGYWGQGTQVTVSS”, the “polyreactivity (PSR sort gate)” value was “high polyreactivity”.

Take “QVQLVESGGGLVQAGGSLRLSCAASGITFPYYGMGWYRQAPGKERELVAAISRGGRTNYADSVKGRFTISRDNAKNTVYLQMNSLKPEDTAVYYCNTRTWSVFAKSDYWGQGTQVTVSS”: the “polyreactivity (PSR sort gate)” value is on record as “high polyreactivity”.

Take “QDQLVESGGGLVQAGGSLRLSCAASGFTFDENAMGWYRQAPGINYSGASTYYADSVKGRFTISRDNAKNTVYLQMNSLKPEDTAVYYCAAEVVAQMNYWGQGTQVTVSS”: the “polyreactivity (PSR sort gate)” value is listed as “low polyreactivity”.

In the case of “QVQLVESGGGLVQAGGSLRLSCAASGRTLARNAMGWYRQAPGKEREFVASINGRTTRTYYADSVKGRFTISRDNAKNTVYLQMNSLKPEDTAVYYCAADPPGYVYGKRYYWGQGTQVTVSS”, the “polyreactivity (PSR sort gate)” value is “high polyreactivity”.

Regarding “QVQLVESGGGFVQAGGSHRLSCAASGRIFSCNAMGWYRQAPGKERELVAAITWRGTSTYYADSVKGRFTISRDNAKNTVYLQMNSLKPEDTAVYYWNGDYYYPADGRHYHYDYWGQGTQVTVSS”, the “polyreactivity (PSR sort gate)” value is reported as “low polyreactivity”.

Take “QVQLVESGGGLVQAGGSLRLSCAASGSIFSSYAMGWYRPAPWKESELVAAITYNGGSTFYADSVKGRFTISRDNAKNTVYLPMYCLKPVDTAVYYCAAEYVGYYVYTWLYDYWGQGTQVTVSS”: the “polyreactivity (PSR sort gate)” value is listed as “high polyreactivity”.

For “QVQLVESGGGLVQAGGSLRLSCAASGSIFPGYAMGWYRQAPGKERELVATITWSGGSTYYADSVKWRFTISRDNEKNTVYLQMNCLKPEDTAVYYCNADSNWYYQWNYYGLYDYWGQGTQVTVSS”, the “polyreactivity (PSR sort gate)” value is recorded as “low polyreactivity”.

With “QVQLVESGGGLVQAGGSLRLSCAASGRTFYQYAMGWYRQAPGKERELVAAITTSGGSTYYADSVKGRFTISRDNAKNTVYLQMNSLKPEDTAVYYCAAPYTGYRERGSYKSDYWGQGTQVTVSS”, the “polyreactivity (PSR sort gate)” value was “low polyreactivity”.

For “QVQLVESGGGLVQAGGSLRLSCAASGMTFTKNVMGWYRQAPGKEWELVAVISRSGGSTYYADSVKGRFTISRDNAKNTVYLQMNSLKPEDTAVYYCTVKGPGPSRGNYWGQVTQVTVSS”, the “polyreactivity (PSR sort gate)” value is given as “low polyreactivity”.

Consider “QVQLVESGGGLVQAGGSLRLSCAASGSTFLYYAMGWYRQAPGKERELVAVISWSCVSTYYADSVKGRFTISRDNAKYTVYLQMNSLKPEDTAVSYCAADWDWRFHRMNYWGQGTQVTVSS”, for which the “polyreactivity (PSR sort gate)” value is on record as “low polyreactivity”.

With “QVQLVESGGGLVQAGGSLRLICAASGSISYYNAMGRYRQAPGKERELVADITSGGGTYYADSVMGGFTISRDNAKNTVFLQMNSLKPEDTAVYYCAKDYGFTGYGYWGQGTQVTVSS”, the “polyreactivity (PSR sort gate)” value is “low polyreactivity”.

Consider “QDQLVESGGGLVQAGGSLRLSCAASGRTFYYSAMGWSRQAPGKERELVATMSRGITNYADSVKGRFTISRDNAKNTVYLQMNSLKPEDTAVYYCAARDGWRSHFRGDYWGQGTQVTVSS”, for which the “polyreactivity (PSR sort gate)” value was “high polyreactivity”.

“QVQLVESGRGLVQAGGSLRLSCAASGSTFVYNVMGWYRQAHGKERELVAAIRRRGGSTYADSVKGRFTITRDNAKNTVYLQMNSLNPEVTAVYYCAAGIPRYWYAGHYDYWGQGTKVTVSS”: the “polyreactivity (PSR sort gate)” value was “low polyreactivity”.

Consider “QVQLVESGGGLVQAGGSLRLSCAASGFTIYYYAMGWYRQAPGKERELVASISWSGGSTNYADSVKGRFTISRDNAKNTVYLQMNRLKPEDTAVYYCNTAGPYRRDYWGQGTQVTVSS”, for which the “polyreactivity (PSR sort gate)” value is reported as “high polyreactivity”.

With “QVQLVESGGGLVQAGGSLRLSCAASGFTFRDNAMGWYRQAPGKERELVAAITWDGGSTYYADSVKGRFTISRDNAKNTVYLQMYSLKPEDTAVYYCAASRYYPRYFKRYYYWGQGTQVTVSS”, the “polyreactivity (PSR sort gate)” value is recorded as “high polyreactivity”.

With “QVQLVESGGGLVQAGGSLRLSCAASGRTFAIYVMGWYRQAPGKEMELVAAISRGGSTYYADSVKGRFTISRDNAKNTVYLQMNSLKPEDTAVYYCAAGTGTTSRYYYWGQGTQVTVSS”, the “polyreactivity (PSR sort gate)” value is recorded as “high polyreactivity”.

For the sequence “QVQLVESGGGLVQAGGSLRLSCAASGSTFGRNAMGWYRQAPGNERELVAAISKRGGSTYYADSVKGRFTISRDNAKNTVYLQMNSLKPEDTAVYYCAKDVEGLGRRYRWYNYWGQGTQVTVSS”, the “polyreactivity (PSR sort gate)” value is given as “high polyreactivity”.

As for “QLQLVESGGGLVQAGGSLRLSCAASGNTYFWYAMGWYRQAPGKERELVAAITSGGSTTYADSVKGRFTISRHNGMNTVYLQMNSLKPEDTAVYYCAQYTRDIFAVTFYEGEDYWGQGSQVTVSS”, the “polyreactivity (PSR sort gate)” value is “low polyreactivity”.

In the case of “QVQLVESGGGLVQAGGSLRLRCAASGRTFGQNAMGLYRQAPGKEREFVAAISSSGGSTYYADSVKGRFTISRDNAKNTVYLQMNSLKPEDTAVYYCNARQYYYRSGAYASRYLYNYWGQGTQVTVSS”, the “polyreactivity (PSR sort gate)” value is recorded as “high polyreactivity”.

“QVQLVESGGGLVQAGGSLRLRCAASGSTILYYAMGWYRQAPGKERELVADIDWSGDSTYYADSVKRRFRISRDNAKNTVYFQMNSLKPEDTAVYYCAATQYYPVPYDYWGQGTQVTVSS”: the “polyreactivity (PSR sort gate)” value is on record as “low polyreactivity”.

For the sequence “QVQLVESGGGLVQAGGSLRLSCAASGSTFYYYAMGWYRQAPGKERELVAAITISGGSTYADSVKGRFTISRDNAKNTVYLQMNSLKPEDTALYYCAAYSGVGYLWFDYWGQGTQVTVSS”, the “polyreactivity (PSR sort gate)” value was “low polyreactivity”.

With “QVQLVESGGGLVQAGGSLRLSCAASGIIFNWYAMGWYRQAPGKERELVAAISGSGDITYYADSVKGRFTISRDNAKNTVYLQMNSLKPEDTAVYYCAADPWTYWEDYDYWGQGTQVTVSS”, the “polyreactivity (PSR sort gate)” value is reported as “low polyreactivity”.

For “QVQHVESGGGLVQAGRSLRLSCAASGSIVGNNAMGWYRQAPGKERELVAVITDGGNTYYADSVKGRFTISRDNAKNTVYLEMNSLKPEDTAVYYCNADWWGDSDYWGQGTQVTVSS”, the “polyreactivity (PSR sort gate)” value was “low polyreactivity”.

Regarding “QVQLVESGGGLVQAGGSLRLSCAASGSTFGRYAKGWYRQAPGKERQLVAAISSSGVTTYYADSVKGRFTISRDNAKNSVYLQINSLKPEDTAVYYCSQTYKYHRWITKYGYWGQGTQVTVSS”, the “polyreactivity (PSR sort gate)” value is reported as “high polyreactivity”.

As to “QVQLVESGGGLVQAGGSLRLSCAASGFTFVYYTMGWYRPAPRKVRELVAAISSSGGRTSYADSVKGLFTISRDNAKNTVYLQMNSLKPEDTAVYYCAARAYPTWRTYYYWGQGTQVTVSS”, the “polyreactivity (PSR sort gate)” value is recorded as “high polyreactivity”.

On to “KVQLVESGGGLVQAGGSLRLSCAPSGRTFRSNGMGWYIQAPGKERELVATISEGGGSTYYADSVKGRFTISRDNAKNTVYLEMISLKPEDSAVYFCAADKWYVLHYLDMNYWGQGTQVTVSS”, for which the “polyreactivity (PSR sort gate)” value is given as “high polyreactivity”.

With “QVQLVESGGVLVQAGGSLRLSCAASGSILSNYAMGWYRQAPGKERELVASISSTAGSTYYADSVKGRFTISRDNCKNTVYLQMNSLKPEDTAVYYSIKVFGGGTYDFWGQGTQVTVSS”, the “polyreactivity (PSR sort gate)” value is on record as “low polyreactivity”.

Consider “QVQLVESGRGLVQAGGSLRLSCAASGSIFSGNAMGWYRQAPGKERELVAAISRSGGSTYYADSVKGRFTISRDNAKNTVYLQLYSLKPEDTAVYYCAAYRTHGPPRALRFDYWGQGTLVTVSS”, for which the “polyreactivity (PSR sort gate)” value is listed as “high polyreactivity”.

In the case of “QVQLVESGGGLVQAGGSLRLSCAASGITFQNYAMGWYRQSPGKERELVAAITRSGGRTYYADSVKGRFTISRDNAKNTVYLQINSLKPEDTAVYYCAFYGIGRPYWYDYWGQGTQVTVSS”, the “polyreactivity (PSR sort gate)” value is recorded as “high polyreactivity”.

Turning to “QVQLVESGGGLVQAGGSLRLSCAAYGFILDFYTMGWYRQAPGKERELVAAITNGGSTYYADSVKGRFTISRDNAKNTVYLQMNSLKPEDTAVYYCAAYYRSRHNGYDSWGQGTQVTVSS”, the “polyreactivity (PSR sort gate)” value is reported as “low polyreactivity”.
